Assay results as given in patent CN113512118A (INST BIOPHYSICS CAS, dated 2021).

Target: T1, sCD146蛋白 (CD146胞外区蛋白, Sino Biological 10115-H08H-20) (human, UniProt P43121 24-559)
T1 construct: extracellular domain; also called 胞外区CD146蛋白
T1 sequence (looked up): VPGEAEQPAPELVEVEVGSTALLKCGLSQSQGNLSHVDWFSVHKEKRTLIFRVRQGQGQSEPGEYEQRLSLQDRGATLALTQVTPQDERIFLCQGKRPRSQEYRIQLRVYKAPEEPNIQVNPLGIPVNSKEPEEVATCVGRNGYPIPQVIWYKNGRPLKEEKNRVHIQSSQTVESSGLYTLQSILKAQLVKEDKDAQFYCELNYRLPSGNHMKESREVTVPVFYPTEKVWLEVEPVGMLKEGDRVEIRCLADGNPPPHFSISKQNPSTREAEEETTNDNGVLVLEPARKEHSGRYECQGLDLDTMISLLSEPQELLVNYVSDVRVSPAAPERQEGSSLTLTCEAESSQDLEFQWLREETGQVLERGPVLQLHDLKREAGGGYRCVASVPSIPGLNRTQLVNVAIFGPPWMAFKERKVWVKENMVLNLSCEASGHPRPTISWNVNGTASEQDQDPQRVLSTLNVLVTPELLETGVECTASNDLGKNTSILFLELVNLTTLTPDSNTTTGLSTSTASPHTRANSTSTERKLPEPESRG
Experiment: BLI (Octet Red96), antibody on Anti-Mouse Fc Capture sensor, sCD146 at 250-3.91 nM

B1: AA98抗体 (mouse monoclonal anti-CD146 antibody AA98) (antibody, mouse IgG2a, kappa, V domains shown)
VH: EVQLLESGAELVRPGASVKLSCKTSGYIFTNYWIHWVKNRSGNGLEWIARIYPGTDITYYNEKFKGKATLTVDKSSSSAYMLLSSLKSEDSSVYFCARSGGYWYFDVWGAGTTVTVSS
VL: ELVMTQSPASLAVSLGQRATISCRASKSVSISGYSYMHWYQQKPGQPPKLLIYLASNLESGVPARFSGSGSGTDFTLNIHPVEEEDAATYYCQHSRELPYTFGGGTKLEIKR
notes: also called 母本AA98抗体; 亲本AA98抗体
- Kd: 1.12 nM
